Earlier results as cited in PMC10155966.

Tests used:
[1] = target: LC8 (UniProt P63167)
[2] = target: dynein intermediate chain (IC) (Rattus norvegicus) (UniProt Q63100); test: ITC
Sequence of UniProt Q63100 (Q63100 2-643): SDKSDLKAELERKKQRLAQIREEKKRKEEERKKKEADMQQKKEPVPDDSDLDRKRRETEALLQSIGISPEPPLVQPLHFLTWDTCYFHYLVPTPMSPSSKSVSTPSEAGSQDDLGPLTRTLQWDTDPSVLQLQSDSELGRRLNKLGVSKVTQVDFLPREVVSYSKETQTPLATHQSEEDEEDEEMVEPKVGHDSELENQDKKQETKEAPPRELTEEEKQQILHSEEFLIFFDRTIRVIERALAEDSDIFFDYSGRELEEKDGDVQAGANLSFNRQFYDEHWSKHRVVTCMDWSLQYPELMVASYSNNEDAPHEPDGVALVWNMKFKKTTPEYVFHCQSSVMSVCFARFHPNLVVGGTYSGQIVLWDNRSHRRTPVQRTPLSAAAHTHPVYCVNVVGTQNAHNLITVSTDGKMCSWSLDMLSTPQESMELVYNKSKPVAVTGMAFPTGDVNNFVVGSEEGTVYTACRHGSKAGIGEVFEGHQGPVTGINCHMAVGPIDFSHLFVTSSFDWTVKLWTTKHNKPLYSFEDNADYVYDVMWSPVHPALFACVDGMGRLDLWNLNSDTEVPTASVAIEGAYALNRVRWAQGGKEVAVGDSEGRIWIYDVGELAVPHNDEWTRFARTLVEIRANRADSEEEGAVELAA

Kd [1] | Kd [2] | Substance
60 nM |  | LC8 (from UniProt P63167)
 | 2300 nM | NudE (from UniProt Q9ES39)
